From publication PMC8727025

Biological target: Arf1 Arf1-del17, lacks the first 17 amino acids (UniProt P84077)
Assay: GFP-GBF1 beads incubated with purified Arf1-del17-His
Conditions: reference: wild type

Sequence of Arf1 Arf1-del17, lacks the first 17 amino acids (P84077 whole entry, looked up): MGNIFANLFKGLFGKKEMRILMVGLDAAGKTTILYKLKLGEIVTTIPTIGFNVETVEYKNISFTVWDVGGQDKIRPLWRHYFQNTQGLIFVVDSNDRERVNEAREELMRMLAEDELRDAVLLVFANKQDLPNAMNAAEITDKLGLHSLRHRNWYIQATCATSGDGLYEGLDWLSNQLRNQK

other: percent reduction vs wild type (sites Y876) [%] | other: percent reduction vs wild type (sites Y898) [%] | Substance
40 | – | GBF1 (from UniProt Q92538-1) Y876F
– | 60 | GBF1 (from UniProt Q92538-1) Y898F
